Measured values from patent publication US11091559B2, “Anti-ALK antibodies and methods for use thereof” (Celldex Therapeutics, Inc., priority 2015, dated 2021).

Columns and labels:
[1] = target: murine ALK (purified mouse ALK antigen) (Mus musculus, UniProt P97793); experiment: Mouse ALK cross-reactivity, solid-state ELISA; type: binding; parameters: key: − none; + weak; ++ moderate; +++ strong; settings: cross-reactivity with murine ALK
Method: Purified mAbs were evaluated for their ability to bind murine ALK by solid-state ELISA, or flow cytometry on Neuro-2a cells that express low levels of endogenous murine ALK. […]

[2] = test system: ALK (total protein levels in NB1 cells); experiment: ALK turnover (total protein levels) by Western blot, 24 hour treatment of NB1 cells; type: cell-based, human; parameters: key: − none; + weak; ++ moderate; +++ strong
Source text: FIG. 5 depicts a Western blot of a panel of ALK antibodies.
See also Table 18, below.

[3] = target: C-terminal region of human ALK ECD (T637-S1038) (Homo sapiens, UniProt Q9UM73); experiment: Competitive binding assay (epitope binning) by flow cytometry; settings: antibodies to the C-terminal region
Method: Antibodies that bind to the C-terminal region of human ALK ECD (T637-S1038) were further characterized using a competitive binding assay. A pairwise matrix approach was used whereby each antibody was fluorescently labeled and tested for its ability to bind to ALK-expressing cells pre-incubated with an unlabeled antibody. The ability of both antibodies to bind the C-terminal domain simultaneously was tested via flow cytometry. If both antibodies bound simultaneously, they were put into different bins and considered to belong to a separate epitope class.

[4] = test system: ALK (basal phosphorylation in NB1 cells); experiment: Western blot of ALK phosphorylation in NB1 cells; type: cell-based, human; settings: effect in words
Method: Lysed cells were subjected to SDS-PAGE, transferred to nitrocellulose and immunoblotted with antibodies against total, and phospho-specific ALK, AKT, and MAPK. FIG. 4B depicts an ELISA of NB1 cells grown in media with reduced serum and treated with 30-100 nM of each antibody for 1-2 hours. Cell lysates were incubated on ELISA plates with an anti-ALK antibody, followed by incubation with a pan phosphotyrosine antibody coupled to HRP.
Cell lysates were subjected to SDS-PAGE and transferred to nitrocellulose. Immunoblotting was performed with antibodies against total, and phospho-specific ALK, AKT, and MAPK (purchased from Cell Signaling and utilized per manufacturer's instructions). HRP (horse radish peroxidase)-conjugated secondary antibodies (Thermo Scientific, Waltham, Mass.) were used along with Supersignal West Pico Chemiluminescent Substrate (Thermo Scientific, Waltham, Mass.) to image blots.
Anti-ALK monoclonal antibodies generated in Example 1 were evaluated via Western blotting for their ability to activate or inhibit basal levels of ALK phosphorylation in NB1 cells (FIG. 4A). A subset of ALK antibodies stimulated ALK tyrosine phosphorylation and a different subset of antibodies inhibited basal levels of ALK phosphorylation. See also Table 18, below. […] That is, ALK antibodies that stimulated ALK tyrosine phosphorylation increased MAPK and AKT phosphorylation, whereas ALK antibodies that inhibited ALK tyrosine phosphorylation decreased basal levels of MAPK and AKT phosphorylation (FIG. 4A). Similar results were obtained in ELISA-based ALK phosphorylation assays from lysates of NB1 cells treated with ALK antibodies (FIG. 4B).

[5] = target: human ALK (hALK, purified ALK protein) (Homo sapiens, UniProt Q9UM73); experiment: Monovalent affinity of humanized antibodies, BLitz System, human ALK; type: binding; settings: BLitz, purified ALK protein at 70 μg/mL, single binding site fit; antibody by plate position of Table 19
Method: The humanized ALK antibodies designed in Example 1 were tested for monovalent affinity, wherein the kinetic data are fit to a single binding site equation to obtain relative affinity values.
Kinetic measurements of the monovalent affinity of the 96 humanized ALK antibody variants (Ab351-Ab446) were collected. Affinity ranking was performed using a BLitz® System (ForteBio, Menlo Park, Calif.). Humanized anti-ALK antibodies were immobilized at 0.5 mg/mL using Protein A tips. Once baseline stability was ensured, purified ALK proteins at 70 μg/mL were added. The resulting kinetic data were fit to a single binding site equation, from which the quoted monovalent KD values were derived.
Amino acid residues that differ between rat ALK and mouse ALK are boxed. KD values for both NB1 (human) cells and Neuro2a (mouse) cells were also determined.

murine ALK (purified mouse ALK antigen), sequence (P97793 19-1042 limits assumed): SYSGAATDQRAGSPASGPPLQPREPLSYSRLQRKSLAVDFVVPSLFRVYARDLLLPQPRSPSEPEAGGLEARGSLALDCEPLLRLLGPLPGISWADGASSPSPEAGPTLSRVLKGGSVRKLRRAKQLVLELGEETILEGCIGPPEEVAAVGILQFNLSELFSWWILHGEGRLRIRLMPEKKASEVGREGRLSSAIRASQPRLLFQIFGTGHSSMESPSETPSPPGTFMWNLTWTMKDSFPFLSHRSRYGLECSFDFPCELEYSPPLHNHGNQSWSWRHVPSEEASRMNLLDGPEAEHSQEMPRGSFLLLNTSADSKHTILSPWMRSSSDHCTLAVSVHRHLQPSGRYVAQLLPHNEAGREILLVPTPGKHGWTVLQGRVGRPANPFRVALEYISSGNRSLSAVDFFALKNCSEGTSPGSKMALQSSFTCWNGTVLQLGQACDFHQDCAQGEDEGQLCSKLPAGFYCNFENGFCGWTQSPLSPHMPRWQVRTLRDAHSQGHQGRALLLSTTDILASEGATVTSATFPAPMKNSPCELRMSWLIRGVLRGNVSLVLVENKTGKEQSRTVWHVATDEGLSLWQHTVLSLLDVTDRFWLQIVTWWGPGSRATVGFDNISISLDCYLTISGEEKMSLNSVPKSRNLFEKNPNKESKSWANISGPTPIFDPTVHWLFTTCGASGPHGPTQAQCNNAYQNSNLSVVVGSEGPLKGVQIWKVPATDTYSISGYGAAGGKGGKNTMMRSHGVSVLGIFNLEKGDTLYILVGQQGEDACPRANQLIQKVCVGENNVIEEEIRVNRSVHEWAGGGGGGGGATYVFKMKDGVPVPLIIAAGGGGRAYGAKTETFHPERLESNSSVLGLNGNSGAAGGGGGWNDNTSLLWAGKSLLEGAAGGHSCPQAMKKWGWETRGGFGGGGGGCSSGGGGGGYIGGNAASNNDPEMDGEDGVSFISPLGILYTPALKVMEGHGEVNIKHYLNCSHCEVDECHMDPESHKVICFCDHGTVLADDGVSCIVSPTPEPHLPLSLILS
C-terminal region of human ALK ECD (T637-S1038), sequence (Q9UM73 19-1620): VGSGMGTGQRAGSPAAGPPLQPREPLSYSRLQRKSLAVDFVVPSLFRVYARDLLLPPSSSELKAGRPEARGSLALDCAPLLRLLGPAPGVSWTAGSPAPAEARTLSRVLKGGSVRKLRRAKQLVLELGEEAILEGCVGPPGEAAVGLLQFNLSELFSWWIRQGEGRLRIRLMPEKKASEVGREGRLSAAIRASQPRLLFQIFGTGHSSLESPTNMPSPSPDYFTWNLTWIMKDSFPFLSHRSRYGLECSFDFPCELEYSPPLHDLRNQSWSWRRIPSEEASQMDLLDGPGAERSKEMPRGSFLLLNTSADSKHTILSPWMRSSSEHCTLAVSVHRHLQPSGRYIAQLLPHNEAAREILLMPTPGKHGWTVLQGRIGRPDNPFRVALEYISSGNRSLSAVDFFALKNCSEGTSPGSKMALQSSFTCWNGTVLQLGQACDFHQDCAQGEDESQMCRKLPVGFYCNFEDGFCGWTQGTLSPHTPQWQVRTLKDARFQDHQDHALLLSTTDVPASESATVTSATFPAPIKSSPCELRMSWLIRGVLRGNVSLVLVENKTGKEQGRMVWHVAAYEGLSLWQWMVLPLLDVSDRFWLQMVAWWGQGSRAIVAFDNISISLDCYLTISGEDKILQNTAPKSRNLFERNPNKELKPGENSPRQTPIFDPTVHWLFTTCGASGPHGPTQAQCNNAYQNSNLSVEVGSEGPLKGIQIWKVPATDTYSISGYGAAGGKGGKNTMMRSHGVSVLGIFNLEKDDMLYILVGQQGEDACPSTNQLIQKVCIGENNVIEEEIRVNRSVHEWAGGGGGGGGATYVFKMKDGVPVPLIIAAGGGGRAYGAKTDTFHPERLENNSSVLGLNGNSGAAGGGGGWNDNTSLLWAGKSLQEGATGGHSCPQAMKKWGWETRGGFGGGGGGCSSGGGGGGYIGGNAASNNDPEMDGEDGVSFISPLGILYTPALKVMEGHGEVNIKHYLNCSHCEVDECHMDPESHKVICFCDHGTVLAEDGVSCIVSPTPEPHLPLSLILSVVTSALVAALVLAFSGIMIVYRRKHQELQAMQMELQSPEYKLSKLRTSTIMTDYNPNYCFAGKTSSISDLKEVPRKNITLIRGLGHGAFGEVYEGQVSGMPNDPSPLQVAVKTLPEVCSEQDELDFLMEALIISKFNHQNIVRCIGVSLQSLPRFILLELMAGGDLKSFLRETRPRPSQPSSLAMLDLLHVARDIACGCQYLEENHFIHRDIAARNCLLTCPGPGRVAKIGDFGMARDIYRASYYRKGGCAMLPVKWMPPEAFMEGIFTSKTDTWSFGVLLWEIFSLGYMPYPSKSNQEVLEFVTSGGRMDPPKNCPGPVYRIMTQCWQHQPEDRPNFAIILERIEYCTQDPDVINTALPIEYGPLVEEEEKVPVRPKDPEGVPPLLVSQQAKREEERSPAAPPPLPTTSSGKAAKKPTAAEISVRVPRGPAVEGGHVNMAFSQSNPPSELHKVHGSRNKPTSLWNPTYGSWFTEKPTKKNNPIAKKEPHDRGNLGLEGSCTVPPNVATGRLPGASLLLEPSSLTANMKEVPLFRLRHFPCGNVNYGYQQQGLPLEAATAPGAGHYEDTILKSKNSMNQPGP
human ALK (hALK, purified ALK protein), sequence (Q9UM73 with tags, fused parts or gaps): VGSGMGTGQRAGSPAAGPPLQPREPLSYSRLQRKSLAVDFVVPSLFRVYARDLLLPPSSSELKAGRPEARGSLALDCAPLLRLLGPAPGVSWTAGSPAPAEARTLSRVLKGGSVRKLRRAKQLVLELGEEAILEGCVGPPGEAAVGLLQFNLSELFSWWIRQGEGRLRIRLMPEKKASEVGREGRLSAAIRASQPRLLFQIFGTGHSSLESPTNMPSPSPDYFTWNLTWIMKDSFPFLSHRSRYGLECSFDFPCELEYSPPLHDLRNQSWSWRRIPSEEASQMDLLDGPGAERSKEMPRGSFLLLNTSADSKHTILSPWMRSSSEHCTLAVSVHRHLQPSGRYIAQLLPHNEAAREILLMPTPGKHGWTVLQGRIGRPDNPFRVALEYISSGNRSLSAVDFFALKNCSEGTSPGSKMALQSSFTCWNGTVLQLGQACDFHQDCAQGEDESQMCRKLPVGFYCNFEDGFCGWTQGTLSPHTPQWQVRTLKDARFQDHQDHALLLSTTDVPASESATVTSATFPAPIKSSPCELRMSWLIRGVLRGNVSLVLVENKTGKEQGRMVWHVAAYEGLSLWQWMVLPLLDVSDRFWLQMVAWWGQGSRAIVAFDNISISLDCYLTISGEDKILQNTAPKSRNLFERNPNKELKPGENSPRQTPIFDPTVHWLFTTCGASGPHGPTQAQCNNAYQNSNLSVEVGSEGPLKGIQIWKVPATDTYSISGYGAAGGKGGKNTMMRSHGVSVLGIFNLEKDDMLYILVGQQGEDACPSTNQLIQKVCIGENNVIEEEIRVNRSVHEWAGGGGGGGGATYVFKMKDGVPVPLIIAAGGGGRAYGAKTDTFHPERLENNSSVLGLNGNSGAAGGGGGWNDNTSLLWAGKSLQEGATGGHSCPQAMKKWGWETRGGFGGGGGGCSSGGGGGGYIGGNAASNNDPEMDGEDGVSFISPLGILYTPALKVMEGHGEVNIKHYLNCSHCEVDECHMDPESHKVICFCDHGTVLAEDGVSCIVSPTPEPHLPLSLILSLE

Molecule	mouse ALK binding [1]	Bin/Domain (bin) [3]	Kd [5] [mM]	ALK turnover [2]	ALK phosphorylation [4]
Ab322: anti-ALK monoclonal antibody; VL SEQ ID NO: 399, VH SEQ ID NO: 400 (antibody, V domains shown, VH domain - Ab322; VL domain - Ab322) VH: QVQLQQSGAELAKPGASVKLSCKASGYTFTNYWMHWVKQRPGQGLEWIGYINPSSGYTKYNQKFKDKATLTADKSSSTAYMQLSSLTYEDSAVYYCARDYYGSSSWFAYWGQGTLVTVSA VL: DIVMTQSQRFMSTSVGDRVSVTCKASQNVGTNVAWYQQKPGQSPKALIYSASYRYSGVPDRFTGSGSGTDFTLTVSNVQSEDLAEYFCQQYNSYPYMYTFGGGTKLEIKR	−	2		−	inhibitor
Ab325: anti-ALK monoclonal antibody; VL SEQ ID NO: 405, VH SEQ ID NO: 406 (antibody, V domains shown, VH domain - Ab325; VL domain - Ab325) VH: QVQLQQSGAELVKPGASVKISCKASGYAFSSYWMNWVKQRPGKGLEWIGQIYPGDGDTNYNGKFKGKATLTADKSSSTAYMQLSSLTSEDSAVYFCARWYYGSYYAMDYWGQGTSVTVSS VL: DIQMTQTTSSLSASLGDRVTISCRASQDISNYLNWYQQKPDGTVKLLIYYTSRLHSGVPSRFSGSGSGTDYSLTISNLEQEDIATYFCQQGNTLPRTFGGGTKLEIKR	+	1		++	
Ab328: anti-ALK monoclonal antibody; VL SEQ ID NO: 411, VH SEQ ID NO: 412 (antibody, V domains shown, VH domain - Ab328; VL domain - Ab328) VH: QVQLQQSGAELAKPGASVKLSCKASGYTFTSYWMHWVKQRPGQGLEWIGYINPSSGYTKYNQKFKDKATLTADKSSSTAYMQLSSLTFEDSAVYYCARDYYGSSSWFAYWGQGTLVTVSA VL: DIVMTQSQKFMSTSVGDRVSVTCKASQNVGTNVAWYQQKPGHSPKALIYSASYRYSGVPDRFTGSGSGTDFTLTISNVQSEDLAEYFCQRYNSYPYMFTFGGGTKLEIKR	+++	2		+++	weak agonist
Ab329: anti-ALK monoclonal antibody; VL SEQ ID NO: 413, VH SEQ ID NO: 414 (antibody, V domains shown, VH domain - Ab329; VL domain - Ab329) VH: QVQLKESGPGLVKPSATLSLTCTVSGFSLTSYHVCWIRQTPGKGLEWMGVIWGDGRTTYNPPLKSRLSISRDTSKSQVFLKMSSLKTEDTATYYCARATMTGHGDAWGQGASVTVSS VL: DIQMTQSPASLSASLEEIVTITCQASQDIDNYLSWYQQKPGKSPHLLIHSATSLADGVPSRFSGGRSGTQFSLKINRLQVEDTGIYYCLQHYSGWTFGGGTKLELKR	+++				weak agonist
Ab320: anti-ALK monoclonal antibody; VL SEQ ID NO: 395, VH SEQ ID NO: 396 (antibody, V domains shown, VH domain - Ab320; VL domain - Ab320) VH: QVQLQQSGAELVKPGASVKISCKASGYAFSSYWMNWVKQRPGKGLEWIGQIYPGDGDTNYNGKFKGKATLTADKSSSTAYMQLSSLTSEDSAVYFCASYYYGSKAYWGQGTLVTVSA VL: DIQMTQSPASLAASVGETVTITCRASENIYYSLAWYQQKQGKSPQLLIYNANSLEDGVPSRFSGSGSGTQYSMKINSMQPEDTATYFCKQAYDVPFTFGSGTKLEIKR	++	1		−	no effect

Further lines, with some results ahead:

mouse ALK binding [1]	Bin/Domain (bin) [3]	Kd [5] [mM]	Molecule	ALK turnover [2]	ALK phosphorylation [4]
+			Ab330: anti-ALK monoclonal antibody; VL SEQ ID NO: 415, VH SEQ ID NO: 416 (antibody, V domains shown, VH domain - Ab330; VL domain - Ab330) VH: EVQVVETGGGVVQPGKSLEITCATSGLTFSTAWMYWVRQSSDRRLEWIARIKDKSNKFASDYVESVRGRFTISRDDSRSSVYLQMNNLKEEDTATYYCTTSYGYAWGQGVMVTVSS VL: DIQMTQSPSSMSASLGDRVTITCQASQDIGNYLIWFQQKPGKSPRPLIYYATNLANGVPSRFSGSRSGSEYSLTITSLESEDMADYHCLQYKQHLTFGSGTKLEIER		inhibitor
−			Ab331: anti-ALK monoclonal antibody; VL SEQ ID NO: 417, VH SEQ ID NO: 418 (antibody, V domains shown, VH domain - Ab331; VL domain - Ab331) VH: EVQVVETGGGVVQPGKSLEITCATSGLTFSTAWMYWVRQSSDRRLEWIARIKDKSNNFASDYVESVRGRFTISRDDSRSSVYLQMNNLKEEDTATYYCTTSYGYAWGQGVMVTVSS VL: DIQMTQSPSSMSASLGDRITITCQASQDIGNYLIWFQQKPGKSPRPLIYYATNLANGVPSRFSGSRSGSEYSLTITSLESEDMADYHCLQYKQHLTFGSGTKLEIER		inhibitor
+			Ab332: anti-ALK monoclonal antibody; VL SEQ ID NO: 419, VH SEQ ID NO: 420 (antibody, V domains shown, VH domain - Ab332; VL domain - Ab332) VH: EVQLQQSGPELVKPGTSVKISCKASGYTFTDYYMNWMKQSHGKSLEWIGDINPNNGVTSYNQKFKGKATLTVDKSSSTAYMELRSLTSEDSAVYYCAREDYGSNYFDYWGQGTTLTVSS VL: DIVLTQSPASLAVSLGQRATISCKASQSVDYDGDSYMNWYQQKPGQPPKLLIYAASNLESGIPARLSGSGSGTDFTLNIHPVEEEDAATYYCQQSNEDPPTFGGGTKLEIRR		weak agonist
		6.08	Ab437: humanized anti-ALK antibody; VL SEQ ID NO: 428, VH SEQ ID NO: 431 (antibody, V domains shown, VH domain - Ab353; VL domain - Ab435) VH: EVQLVQSGAEVKKPGTSVKLSCKASGYTFTSSAMQWVKQAPGQGLEWIGYIKPSSGYTKYNQKFKDKATLTADKSTSTAYMELSSLRSEDTAVYYCARDYYGSSSWFAYWGQGTLVTVSS VL: EIVMTQSQATMSTSVGERATLSCKASQNVGTNVAWYQQKPGQSPKALIYGASTRATGVPARFSGSGSGTDFTLTISSVEPEDFAVYYCQQYNSYPYMYTFGQGTKLEIK		
